Positions count from the first letter of the chain named. Names may count otherwise.
B1: A281C: bx9 SEQ ID NO:1 mutant (protein)
chain: MASSRTGAGAGGRVVVFPFPFQGHFNPVMRLARALHARGLAITVFHSGALDPADYPADYRFVPVTVEADPKLLASEDIAAIVTTLNASCDAPFRARLSALLAAEGRDSVRCVFTDVSWNAVLTASSDLGVPALGMMTASAASLRDYMAYRTLIDKGYLPVKEERKEDPVPELPPYLVKDLLRVDTSDLEEFAELLARTVTAARRASGLIFNTFPLIETDTLAEIHKALSVPVFAVAPLNKLVPTATASLHGVVQADRGCLQWLDTQQPGSVLYVSFGSMACMDPHEFVELAWGLADSKRPFVWVVRPNLIRGFESGALPDGVEDEVRGRGIVVAWAPQEEVLAHPAVGGFLTHNGWNSTVEAISEGVPMVCCPRHGDQFGNMRYVCDVWKVGTELVGEQLERGQVKAAIDRLFGTKEGEEIKERMKEFKIAAAKGIGIGVDVDETASPRTDLTDLVDLIKSF
modifications: Zea mays
B2: A281Q: bx9 SEQ ID NO:1 mutant (protein)
chain: B1 chain with C281Q
modifications: Zea mays
B3: T220V: bx9 SEQ ID NO:1 mutant (protein)
chain: B1 chain with T220V, C281A
modifications: Zea mays
B4: L194N: bx9 SEQ ID NO:1 mutant (protein)
chain: B1 chain with L194N, C281A
modifications: Zea mays
B5: T220G: bx9 SEQ ID NO:1 mutant (protein)
chain: B1 chain with T220G, C281A
modifications: Zea mays
B6: T220M: bx9 SEQ ID NO:1 mutant (protein)
chain: B1 chain with T220M, C281A
modifications: Zea mays
B7: T220R: bx9 SEQ ID NO:1 mutant (protein)
chain: B1 chain with T220R, C281A
modifications: Zea mays
B8: T220E: bx9 SEQ ID NO:1 mutant (protein)
chain: B1 chain with T220E, C281A
modifications: Zea mays
B9: T220D: bx9 SEQ ID NO:1 mutant (protein)
chain: B1 chain with T220D, C281A
modifications: Zea mays
B10: T220Q: bx9 SEQ ID NO:1 mutant (protein)
chain: B1 chain with T220Q, C281A
modifications: Zea mays
B11: L194C: bx9 SEQ ID NO:1 mutant (protein)
chain: B1 chain with L194C, C281A
modifications: Zea mays
B12: L194A: bx9 SEQ ID NO:1 mutant (protein)
chain: B1 chain with L194A, C281A
modifications: Zea mays
B13: T198V: bx9 SEQ ID NO:1 mutant (protein)
chain: B1 chain with T198V, C281A
modifications: Zea mays
B14: A202V: bx9 SEQ ID NO:1 mutant (protein)
chain: B1 chain with A202V, C281A
modifications: Zea mays
B15: T220Y: bx9 SEQ ID NO:1 mutant (protein)
chain: B1 chain with T220Y, C281A
modifications: Zea mays
B16: A202M: bx9 SEQ ID NO:1 mutant (protein)
chain: B1 chain with A202M, C281A
modifications: Zea mays
B17: T220L: bx9 SEQ ID NO:1 mutant (protein)
chain: B1 chain with T220L, C281A
modifications: Zea mays
B18: T220A: bx9 SEQ ID NO:1 mutant (protein)
chain: B1 chain with T220A, C281A
modifications: Zea mays
B19: T220N: bx9 SEQ ID NO:1 mutant (protein)
chain: B1 chain with T220N, C281A
modifications: Zea mays
B20: T220S: bx9 SEQ ID NO:1 mutant (protein)
chain: B1 chain with T220S, C281A
modifications: Zea mays
B21: L195I: bx9 SEQ ID NO:1 mutant (protein)
chain: B1 chain with L195I, C281A
modifications: Zea mays
B22: A202L: bx9 SEQ ID NO:1 mutant (protein)
chain: B1 chain with A202L, C281A
modifications: Zea mays
B23: V199N: bx9 SEQ ID NO:1 mutant (protein)
chain: B1 chain with V199N, C281A
modifications: Zea mays
B24: A202F: bx9 SEQ ID NO:1 mutant (protein)
chain: B1 chain with A202F, C281A
modifications: Zea mays
B25: L194V: bx9 SEQ ID NO:1 mutant (protein)
chain: B1 chain with L194V, C281A
modifications: Zea mays
B26: F210W: bx9 SEQ ID NO:1 mutant (protein)
chain: B1 chain with F210W, C281A
modifications: Zea mays
B27: A202C: bx9 SEQ ID NO:1 mutant (protein)
chain: B1 chain with A202C, C281A
modifications: Zea mays
B28: T220C: bx9 SEQ ID NO:1 mutant (protein)
chain: B1 chain with T220C, C281A
modifications: Zea mays
B29: T220I: bx9 SEQ ID NO:1 mutant (protein)
chain: B1 chain with T220I, C281A
modifications: Zea mays
B30: F210M: bx9 SEQ ID NO:1 mutant (protein)
chain: B1 chain with F210M, C281A
modifications: Zea mays
B31: T220K: bx9 SEQ ID NO:1 mutant (protein)
chain: B1 chain with T220K, C281A
modifications: Zea mays
B32: A281M: bx9 SEQ ID NO:1 mutant (protein)
chain: B1 chain with C281M
modifications: Zea mays

Experiment: UDP luminescence plate assay of E. coli extracts, saturation mutants of SEQ ID NO: 1, herbicide V
Type: biochemical, Zea mays
Settings: improvement factor relative to w/t bx9 = 1.0, rounded to nearest 0.5; extract activity basis; compound V
In the case of B1, the “Most Preferred amino acid substitutions and (IF) based on RLU/min/ul” value is reported as “C,Q(3.0)”.
With B2 the “Most Preferred amino acid substitutions and (IF) based on RLU/min/ul” value was “C,Q(3.0)”.
In the case of B3, the “Preferred amino acid substitutions and (IF) based on RLU/min/ul” value is reported as “G,Q,D,V(1.0)”.
With B4 the “Most Preferred amino acid substitutions and (IF) based on RLU/min/ul” value was “C,N,V(3.0)”.
For B5, the “Preferred amino acid substitutions and (IF) based on RLU/min/ul” value was “G,Q,D,V(1.0)”.
For B6, the “Preferred amino acid substitutions and (IF) based on RLU/min/ul” value was “C,A,N,E,L,I,M(1.5)”.
With B7 the “Most Preferred amino acid substitutions and (IF) based on RLU/min/ul” value was “S,R(2.5)”.
In the case of B8, the “Preferred amino acid substitutions and (IF) based on RLU/min/ul” value is reported as “C,A,N,E,L,I,M(1.5)”.
In the case of B9, the “Preferred amino acid substitutions and (IF) based on RLU/min/ul” value is reported as “G,Q,D,V(1.0)”.
With B10 the “Preferred amino acid substitutions and (IF) based on RLU/min/ul” value was “G,Q,D,V(1.0)”.
With B11 the “Most Preferred amino acid substitutions and (IF) based on RLU/min/ul” value was “C,N,V(3.0)”.
In the case of B12, the “Most Preferred amino acid substitutions and (IF) based on RLU/min/ul” value is reported as 2.5.
For B13, the “Most Preferred amino acid substitutions and (IF) based on RLU/min/ul” value was “V(2.0)”.
In the case of B14, the “Preferred amino acid substitutions and (IF) based on RLU/min/ul” value is reported as “T,I,V,L,F(1.5)”.
In the case of B15, the “Most Preferred amino acid substitutions and (IF) based on RLU/min/ul” value is reported as 3.5.
In the case of B16, the “Preferred amino acid substitutions and (IF) based on RLU/min/ul” value is reported as “S,I,C,M(1.0)”.
In the case of B17, the “Preferred amino acid substitutions and (IF) based on RLU/min/ul” value is reported as “C,A,N,E,L,I,M(1.5)”.
In the case of B18, the “Preferred amino acid substitutions and (IF) based on RLU/min/ul” value is reported as “C,A,N,E,L,I,M(1.5)”.
In the case of B19, the “Preferred amino acid substitutions and (IF) based on RLU/min/ul” value is reported as “C,A,N,E,L,I,M(1.5)”.
In the case of B20, the “Most Preferred amino acid substitutions and (IF) based on RLU/min/ul” value is reported as “S,R(2.5)”.
For B21, the “Preferred amino acid substitutions and (IF) based on RLU/min/ul” value was “I(1.0)”.
In the case of B22, the “Preferred amino acid substitutions and (IF) based on RLU/min/ul” value is reported as “T,I,V,L,F(1.5)”.
In the case of B23, the “Preferred amino acid substitutions and (IF) based on RLU/min/ul” value is reported as “M,N(1.0)”.
With B24 the “Preferred amino acid substitutions and (IF) based on RLU/min/ul” value was “T,I,V,L,F(1.5)”.
In the case of B25, the “Most Preferred amino acid substitutions and (IF) based on RLU/min/ul” value is reported as “C,N,V(3.0)”.
For B26, the “Preferred amino acid substitutions and (IF) based on RLU/min/ul” value was “M,W(1.0)”.
With B27 the “Preferred amino acid substitutions and (IF) based on RLU/min/ul” value was “S,I,C,M(1.0)”.
For B28, the “Preferred amino acid substitutions and (IF) based on RLU/min/ul” value was “C,A,N,E,L,I,M(1.5)”.
With B29 the “Preferred amino acid substitutions and (IF) based on RLU/min/ul” value was “C,A,N,E,L,I,M(1.5)”.
With B30 the “Preferred amino acid substitutions and (IF) based on RLU/min/ul” value was “M,W(1.0)”.
For B31, the “Most Preferred amino acid substitutions and (IF) based on RLU/min/ul” value was 3.0.
For B32, the “Most Preferred amino acid substitutions and (IF) based on RLU/min/ul” value was 5.0.

Experiment: UDP luminescence plate assay of E. coli extracts, mutants of SEQ ID No: 1, 2 mM metribuzin
Type: biochemical, Zea mays
Settings: 2 mM metribuzin; relative to bx9 w/t
In short: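 Extracts of E. coli BL21 DE3 expressing C-terminally His-tagged SEQ ID NO:1 variants incubated with 2 mM metribuzin; UDP formed read by UDP-Glo luminescence against a UDP standard curve, with optional 95 C stop. Mutants ranked by metribuzin/DMSO signal ratio and signal increase over wild-type bx9.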
In the case of B1, the “SIGNAL: metribuzin signal of mutant divided by the signal of w/t bx9” value is reported as 1.58.
For B2, the “SIGNAL: metribuzin signal of mutant divided by the signal of w/t bx9” value was 2.82.
In the case of B32, the “SIGNAL: metribuzin signal of mutant divided by the signal of w/t bx9” value is reported as 2.59.

Same assay, conditions: mutants of SEQ ID No: 1; DMSO in place of metribuzin (background UDP-glucose hydrolysis)
For B1, the “luminescence signal in the DMSO control” value was 4.80E+05.
With B2 the “luminescence signal in the DMSO control” value was 7.59E+05.
In the case of B32, the “luminescence signal in the DMSO control” value is reported as 8.45E+05.

Same assay, conditions: mutants of SEQ ID No: 1 in E. coli extracts; 2 mM metribuzin; UDP luminescence
In the case of B1, the “luminescence signal observed with 2 mM metribuzin” value (“luminescence signal observed” below) is reported as 4.43E+05.
For B2, the “luminescence signal observed” value was 7.89E+05.
With B32 the “luminescence signal observed” value was 7.25E+05.

— patent publication US20200270588A1, “GLUCOSYL TRANSFERASE POLYPEPTIDES AND METHODS OF USE” (Syngenta Participations AG, priority 2017, published 2020)
